This assay deals with HLA-A*02:01 MHC Class I complex (recombinant, biotinylated) (human). As to the kind of experiment: displacement of the FITC-labelled in-place peptide from 1 uM HLA-A*02:01; competitor: incoming peptide [..] at 20 uM with 10 mM GlyCha, 4 h at room temperature; FITC on streptavidin capture beads by flow cytometry. In general terms: Flow cytometry measures light scatter and fluorescence of single cells or particles in a stream.

B1: EP3 … (SEQ ID NO: 1), FITC-labelled in-place peptide GMGQ{Lys(FITC)}DSYV (peptide)
peptide: GMGQKDSYV
modifications: not checked
Turning to B1, the exchange efficiency came to 1.

These data come from US20240272171A1, “Methods for Identification of Exchangeable MHC Binding Peptides and Methods of Use Thereof” (PhenomeX Inc., priority 2020, published 2024).
